Assay results taken from the supplement of paper PMC10065799, “High-throughput profiling of sequence recognition by tyrosine kinases and SH2 domains using bacterial peptide display” (eLife, 2023).

tested on: c-Src; assay: phosphorylation enrichment, bacterial display (enrichment ratio); higher = better substrate or ligand; peptides without Tyr show the background
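Wherever SH2 binding enrichment of the phosphorylated peptide, bacterial display is given: peptide library displayed on the E. coli surface as eCPX fusions, selected cells deep-sequenced, score is each peptide's frequency after selection divided by its frequency in the input.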
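Wherever phosphorylation enrichment, bacterial display is given: 11-residue human phosphosite peptides and single-mutation variants displayed on the E. coli surface, counted by deep sequencing, each peptide's frequency after selection divided by its frequency in the unselected input library; frequency after pTyr selection over input frequency; kinase dosed for 20-30% of maximal phosphorylation in three min.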

Going from TLNFFYQQVKS [PTK2_Y148] to YLGRNYLETLM [DUS3L_Y610_D609N], the phosphorylation enrichment rises from 0.361 to 0.411.

First: TFSPPYFHRNC [HGD_Y333_R330S_YF]
Second: FKDVTYLTEEK [UBE3A_Y127]
The phosphorylation enrichment of the first is higher: 1.01 for the first, 0.511 for the second.

Going from DPMNTYARPAE [SGMS2_Y24_T21M] to WKGSWYSMKKM [FGB_Y475_R478K], the phosphorylation enrichment falls from 0.538 to 0.373.

First: WGLCSYFETSK [MAGED2_Y448_R446C_YF]
Second: HCYNSYTYPRL [PAK7_Y316_S312C]
The phosphorylation enrichment of the first is lower: 0.698 for the first, 0.725 for the second.

Compared with LENQTYFRSFE [AKAP9_Y2482_K2484R], KMLEKYKEQLN [TLK2_Y259_R262Q] is lower in phosphorylation enrichment: 0.55 for the first, 0.336 for the second.

Going from VKPENYRRQDI [VHL_Y175_L178Q] to RTVDVYFGPQM [KIRREL3_Y332_R336Q], the phosphorylation enrichment rises from 0.365 to 1.73.

First: ADCRFYAFPQM [GAMT_Y223_YF]
Second: IGEGTYGTVFK [CDK5_Y15]
The phosphorylation enrichment of the first is lower: 1.35 for the first, 6.34 for the second.

First: VVQGLYKSMRK [KBTBD2_Y250_P254R]
Second: ETAVHYIHDGI [GATD3A_Y250_L248V]
The phosphorylation enrichment of the first is lower: 0.391 for the first, 0.461 for the second.

First: SSEILYHIIKG [CDH17_Y489_K486E]
Second: CTTIPYNFMCN [TP53_Y234_H233P_YF]
The phosphorylation enrichment of the first is higher: 4.11 for the first, 0.753 for the second.

Compared with TAVNGYAFGGG [ECHS1_Y137_A132T], SVVVPYEPPEA [TP53_Y220_V225A] is higher in phosphorylation enrichment: 0.561 for the first, 0.574 for the second.

Compared with GVCKNYAEAKD [ALB_Y343_D338G], MFFSKYDRDND [FGB_Y408_T407K] is higher in phosphorylation enrichment: 0.392 for the first, 0.426 for the second.

Compared with PTATSYTPNLA [GABRA1_Y375], TRRSSYEDSSL [HNF4A_Y144] is higher in phosphorylation enrichment: 0.306 for the first, 0.447 for the second.

Compared with SLNAVYPRAGS [OAS3_Y376], ISKQGYDEAGP [ACTC1_Y364_E363G] is higher in phosphorylation enrichment: 0.368 for the first, 0.541 for the second.

First: ATHRGYDSDNP [MMUT_Y146]
Second: MKMISYETLIA [DOCK10_Y1350_T1347M]
The phosphorylation enrichment of the first is lower: 0.365 for the first, 0.421 for the second.

Sequence FGSRLYKYAFK [FANCD2_Y458_L456R] has a phosphorylation enrichment of 0.318.

molecular target: Grb2 SH2 (UniProt P62993); assay: SH2 binding enrichment of the phosphorylated peptide, bacterial display (enrichment ratio); higher = better substrate or ligand; peptides without Tyr show the background
Sequence (P62993 whole entry, looked up): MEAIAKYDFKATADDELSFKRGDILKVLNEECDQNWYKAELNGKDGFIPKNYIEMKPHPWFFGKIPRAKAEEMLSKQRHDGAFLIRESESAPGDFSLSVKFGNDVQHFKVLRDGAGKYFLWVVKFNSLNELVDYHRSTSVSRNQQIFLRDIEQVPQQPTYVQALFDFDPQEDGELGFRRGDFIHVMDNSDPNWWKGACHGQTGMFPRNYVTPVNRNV

Compared with TLNFFYQQVKS [PTK2_Y148], YLGRNYLETLM [DUS3L_Y610_D609N] is higher in SH2 binding enrichment: 0.802 for the first, 1.01 for the second.

Going from TFSPPYFHRNC [HGD_Y333_R330S_YF] to FKDVTYLTEEK [UBE3A_Y127], the SH2 binding enrichment falls from 8.96 to 1.11.

Going from DPMNTYARPAE [SGMS2_Y24_T21M] to WKGSWYSMKKM [FGB_Y475_R478K], the SH2 binding enrichment rises from 0.732 to 1.3.

Compared with WGLCSYFETSK [MAGED2_Y448_R446C_YF], HCYNSYTYPRL [PAK7_Y316_S312C] is lower in SH2 binding enrichment: 1.11 for the first, 0.902 for the second.

First: LENQTYFRSFE [AKAP9_Y2482_K2484R]
Second: KMLEKYKEQLN [TLK2_Y259_R262Q]
The SH2 binding enrichment of the first is lower: 0.803 for the first, 1.01 for the second.

First: VKPENYRRQDI [VHL_Y175_L178Q]
Second: RTVDVYFGPQM [KIRREL3_Y332_R336Q]
The SH2 binding enrichment of the first is higher: 0.862 for the first, 0.838 for the second.

Going from ADCRFYAFPQM [GAMT_Y223_YF] to IGEGTYGTVFK [CDK5_Y15], the SH2 binding enrichment falls from 0.778 to 0.699.

Going from VVQGLYKSMRK [KBTBD2_Y250_P254R] to ETAVHYIHDGI [GATD3A_Y250_L248V], the SH2 binding enrichment falls from 0.68 to 0.678.

First: SSEILYHIIKG [CDH17_Y489_K486E]
Second: CTTIPYNFMCN [TP53_Y234_H233P_YF]
The SH2 binding enrichment of the first is higher: 1.2 for the first, 0.927 for the second.

Going from TAVNGYAFGGG [ECHS1_Y137_A132T] to SVVVPYEPPEA [TP53_Y220_V225A], the SH2 binding enrichment rises from 0.683 to 0.967.

Going from GVCKNYAEAKD [ALB_Y343_D338G] to MFFSKYDRDND [FGB_Y408_T407K], the SH2 binding enrichment rises from 0.886 to 1.07.

Going from PTATSYTPNLA [GABRA1_Y375] to TRRSSYEDSSL [HNF4A_Y144], the SH2 binding enrichment rises from 0.699 to 0.822.

First: SLNAVYPRAGS [OAS3_Y376]
Second: ISKQGYDEAGP [ACTC1_Y364_E363G]
The SH2 binding enrichment of the first is lower: 0.872 for the first, 0.916 for the second.

First: ATHRGYDSDNP [MMUT_Y146]
Second: MKMISYETLIA [DOCK10_Y1350_T1347M]
The SH2 binding enrichment of the first is higher: 0.998 for the first, 0.752 for the second.

With FGSRLYKYAFK [FANCD2_Y458_L456R] the SH2 binding enrichment was 1.09.

molecular target: SHP2-C SH2; assay: as above

First: TLNFFYQQVKS [PTK2_Y148]
Second: YLGRNYLETLM [DUS3L_Y610_D609N]
The SH2 binding enrichment of the first is lower: 0.768 for the first, 1.1 for the second.

Compared with TFSPPYFHRNC [HGD_Y333_R330S_YF], FKDVTYLTEEK [UBE3A_Y127] is lower in SH2 binding enrichment: 1.18 for the first, 0.777 for the second.

First: DPMNTYARPAE [SGMS2_Y24_T21M]
Second: WKGSWYSMKKM [FGB_Y475_R478K]
The SH2 binding enrichment of the first is lower: 0.605 for the first, 1.37 for the second.

First: WGLCSYFETSK [MAGED2_Y448_R446C_YF]
Second: HCYNSYTYPRL [PAK7_Y316_S312C]
The SH2 binding enrichment of the first is lower: 0.797 for the first, 0.799 for the second.

First: LENQTYFRSFE [AKAP9_Y2482_K2484R]
Second: KMLEKYKEQLN [TLK2_Y259_R262Q]
The SH2 binding enrichment of the first is lower: 0.546 for the first, 0.619 for the second.

First: VKPENYRRQDI [VHL_Y175_L178Q]
Second: RTVDVYFGPQM [KIRREL3_Y332_R336Q]
The SH2 binding enrichment of the first is higher: 0.607 for the first, 0.453 for the second.

Compared with ADCRFYAFPQM [GAMT_Y223_YF], IGEGTYGTVFK [CDK5_Y15] is higher in SH2 binding enrichment: 0.653 for the first, 0.703 for the second.

Compared with VVQGLYKSMRK [KBTBD2_Y250_P254R], ETAVHYIHDGI [GATD3A_Y250_L248V] is lower in SH2 binding enrichment: 0.652 for the first, 0.465 for the second.

Going from SSEILYHIIKG [CDH17_Y489_K486E] to CTTIPYNFMCN [TP53_Y234_H233P_YF], the SH2 binding enrichment falls from 1.18 to 0.994.

Compared with TAVNGYAFGGG [ECHS1_Y137_A132T], SVVVPYEPPEA [TP53_Y220_V225A] is higher in SH2 binding enrichment: 0.093 for the first, 0.675 for the second.

Going from GVCKNYAEAKD [ALB_Y343_D338G] to MFFSKYDRDND [FGB_Y408_T407K], the SH2 binding enrichment rises from 0.705 to 0.801.

Compared with PTATSYTPNLA [GABRA1_Y375], TRRSSYEDSSL [HNF4A_Y144] is lower in SH2 binding enrichment: 0.604 for the first, 0.531 for the second.

Compared with SLNAVYPRAGS [OAS3_Y376], ISKQGYDEAGP [ACTC1_Y364_E363G] is higher in SH2 binding enrichment: 0.509 for the first, 0.613 for the second.

Going from ATHRGYDSDNP [MMUT_Y146] to MKMISYETLIA [DOCK10_Y1350_T1347M], the SH2 binding enrichment rises from 0.533 to 1.24.

FGSRLYKYAFK [FANCD2_Y458_L456R] showed an SH2 binding enrichment of 0.628.

molecular target: c-Src SH2; assay: as above

Going from TLNFFYQQVKS [PTK2_Y148] to YLGRNYLETLM [DUS3L_Y610_D609N], the SH2 binding enrichment falls from 0.885 to 0.41.

First: TFSPPYFHRNC [HGD_Y333_R330S_YF]
Second: FKDVTYLTEEK [UBE3A_Y127]
The SH2 binding enrichment of the first is higher: 2.42 for the first, 0.429 for the second.

Going from DPMNTYARPAE [SGMS2_Y24_T21M] to WKGSWYSMKKM [FGB_Y475_R478K], the SH2 binding enrichment falls from 1.73 to 1.19.

First: WGLCSYFETSK [MAGED2_Y448_R446C_YF]
Second: HCYNSYTYPRL [PAK7_Y316_S312C]
The SH2 binding enrichment of the first is lower: 0.698 for the first, 5.34 for the second.

First: LENQTYFRSFE [AKAP9_Y2482_K2484R]
Second: KMLEKYKEQLN [TLK2_Y259_R262Q]
The SH2 binding enrichment of the first is higher: 0.624 for the first, 0.426 for the second.

Compared with VKPENYRRQDI [VHL_Y175_L178Q], RTVDVYFGPQM [KIRREL3_Y332_R336Q] is lower in SH2 binding enrichment: 0.494 for the first, 0.304 for the second.

Going from ADCRFYAFPQM [GAMT_Y223_YF] to IGEGTYGTVFK [CDK5_Y15], the SH2 binding enrichment falls from 0.526 to 0.434.

Compared with VVQGLYKSMRK [KBTBD2_Y250_P254R], ETAVHYIHDGI [GATD3A_Y250_L248V] is higher in SH2 binding enrichment: 0.462 for the first, 0.504 for the second.

Going from SSEILYHIIKG [CDH17_Y489_K486E] to CTTIPYNFMCN [TP53_Y234_H233P_YF], the SH2 binding enrichment falls from 2.4 to 2.07.

First: TAVNGYAFGGG [ECHS1_Y137_A132T]
Second: SVVVPYEPPEA [TP53_Y220_V225A]
The SH2 binding enrichment of the first is lower: 0.399 for the first, 0.795 for the second.

First: GVCKNYAEAKD [ALB_Y343_D338G]
Second: MFFSKYDRDND [FGB_Y408_T407K]
The SH2 binding enrichment of the first is higher: 0.825 for the first, 0.447 for the second.

Compared with PTATSYTPNLA [GABRA1_Y375], TRRSSYEDSSL [HNF4A_Y144] is lower in SH2 binding enrichment: 0.729 for the first, 0.51 for the second.

First: SLNAVYPRAGS [OAS3_Y376]
Second: ISKQGYDEAGP [ACTC1_Y364_E363G]
The SH2 binding enrichment of the first is lower: 0.452 for the first, 1.42 for the second.

First: ATHRGYDSDNP [MMUT_Y146]
Second: MKMISYETLIA [DOCK10_Y1350_T1347M]
The SH2 binding enrichment of the first is lower: 0.536 for the first, 2 for the second.

Sequence FGSRLYKYAFK [FANCD2_Y458_L456R] has an SH2 binding enrichment of 0.77.
